Positions count from the first letter of the chain named.

For experiment [1], the target named is T1, mFc-cNKG2D (cynomolgus monkey, UniProt P61252 73-216).
T1 construct: extracellular domain; Made in house (Dragonfly Tx); also called recombinant cyno NKG2D extracellular domain (ECD); mFc-tagged cyno NKG2D dimer; not shown: mouse Fc tag
T1 sequence (looked up): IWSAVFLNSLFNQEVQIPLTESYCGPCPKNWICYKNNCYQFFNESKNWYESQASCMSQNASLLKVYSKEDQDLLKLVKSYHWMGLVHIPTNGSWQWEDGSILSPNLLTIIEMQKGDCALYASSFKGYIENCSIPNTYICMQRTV
Kind of experiment: SPR Biacore 37 C; mFc-tagged cyno NKG2D dimer, TriNKET as analyte; steady state affinity fit; average of 4. On the technique in general: SPR reads the build-up and loss of mass on a sensor chip optically.

Experiment [2] concerns the target T2, mFc-hNKG2D (human, UniProt P26718 73-216).
T2 construct: extracellular domain; Made in house (Dragonfly Tx); the order of tag and ECD follows the name mFc-hNKG2D; also called mFc-tagged human NKG2D; not shown: mouse Fc tag
T2 sequence (looked up): T1 sequence (looked up) with N43D, I133T
Kind of experiment: SPR Biacore 8K 37 C; mFc-hNKG2D captured on anti-mFc chip, TriNKET as analyte; steady state fit; after 0.02% H2O2 24 h.

B1: F3'-1602 TriNKET (bispecific antibody, human IgG1, kappa)
chain: QLQLQESGPGLVKPSETLSLTCTVSGFSLTNYGLHWIRQPPGKCLEWIGVIWSGGKTDYNPSLKSRVTISKDTSKNQFSLKLSSVQAADTAVYYCAKYDYDDSLDYWGQGTLVTVSSGGGGSGGGGSGGGGSGGGGSDIQMTQSPSSLSASVGDRVTITCHASQNINFWLSWYQQKPGKAPKLLIYEASNLHTGVPSRFSGSGSGTRFTLTISSLQPEDIATYYCQQSHSYPLTFGCGTKLEIKGSDKTHTCPPCPAPELLGGPSVFLFPPKPKDTLMISRTPEVTCVVVDVSHEDPEVKFNWYVDGVEVHNAKTKPREEQYNSTYRVVSVLTVLHQDWLNGKEYKCKVSNKALPAPIEKTISKAKGQPREPRVYTLPPCRDELTKNQVSLTCLVKGFYPSDIAVEWESNGQPENNYKTTPPVLVSDGSFTLYSKLTVDKSRWQQGNVFSCSVMHEALHNHYTQKSLSLSPG
heavy: EVQLVESGGGLVKPGGSLRLSCAASGFTFSSYSMNWVRQAPGKGLEWVSSISSSSSYIYYADSVKGRFTISRDNAKNSLYLQMNSLRAEDTAVYYCARGAPIGAAAGWFDPWGQGTLVTVSSASTKGPSVFPLAPSSKSTSGGTAALGCLVKDYFPEPVTVSWNSGALTSGVHTFPAVLQSSGLYSLSSVVTVPSSSLGTQTYICNVNHKPSNTKVDKKVEPKSCDKTHTCPPCPAPELLGGPSVFLFPPKPKDTLMISRTPEVTCVVVDVSHEDPEVKFNWYVDGVEVHNAKTKPREEQYNSTYRVVSVLTVLHQDWLNGKEYKCKVSNKALPAPIEKTISKAKGQPREPQVCTLPPSRDELTENQVSLTCLVKGFYPSDIAVEWESNGQPENNYKTTPPVLDSDGSFFLYSWLTVDKSRWQQGNVFSCSVMHEALHNHYTQKSLSLSPG
light: DIQMTQSPSSVSASVGDRVTITCRASQGISSWLAWYQQKPGKAPKLLIYAASSLQSGVPSRFSGSGSGTDFTLTISSLQPEDFATYYCQQGVSFPRTFGGGTKVEIKRTVAAPSVFIFPPSDEQLKSGTASVVCLLNNFYPREAKVQWKVDNALQSGNSQESVTEQDSKDSTYSLSSTLTLSKADYEKHKVYACEVTHQGLSSPVTKSFNRGEC
notes: Trispecific F3' format: CLEC12A scFv-Fc paired with NKG2D Fab-Fc; Stressed and control samples of the stability studies are the same molecule; also called AB0237
For the molecule B1, the Kd in experiment [1] was 828 nM; in experiment [2], 732 nM.

In general, Kd refers to the concentration at which binding is half-saturated. High values mean a looser complex, low ones a tighter complex.

(Values after patent US20220119534A1 (DRAGONFLY THERAPEUTICS, published 2022).)
